From the supplement of paper PMC10724198
± gives the standard deviation of the averaged measurements.

Assays:
[1] = tested on: Saccharomyces cerevisiae; test: protein stability index of tFT-peptide fusion (C-terminal peptide) (PSI (0-1 scale)); higher = more stable (slower turnover)
Description: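 MPS profiling in S. cerevisiae of the tFT-X12 degron library: putative degron peptides plus stable controls, 12 aa, fused to the C-terminus of a sfGFP-mCherry timer. Cells are FACS-sorted into 8 mCherry/sfGFP bins and deep-sequenced. PSI runs from 0 (unstable) to 1 (stable). Backgrounds are wild type, das1Δ and doa10Δ at 30 °C, and wild type, das1Δ, cdc34-1 and cdc53-1 at 37 °C; 2-3 technical replicates each.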

[2] = tested on: Saccharomyces cerevisiae; test: as above; settings: genetic background: wild type; temperature: 30 C
[3] = genetic background: cdc34-1, temperature: 37 C
[4] = genetic background: cdc53-1, temperature: 37 C
[5] = genetic background: das1 deletion, temperature: 30 C
[6] = genetic background: das1 deletion, temperature: 37 C
[7] = genetic background: doa10 deletion, temperature: 30 C
[8] = genetic background: wild type, temperature: 30 C
[9] = genetic background: wild type, temperature: 37 C
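Also: PSI is a weighted mean of sequencing reads over stability bins, variants kept only with over 10 reads, mCherry proximal and sfGFP distal, peptide attached via GGGS linker.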

| Sequence | protein stability index [1, 3] | protein stability index [1, 4] | protein stability index [1, 5] | protein stability index [1, 6] | protein stability index [1, 7] | protein stability index [1, 8] | protein stability index [1, 9] | protein stability index [2] |
| --- | --- | --- | --- | --- | --- | --- | --- | --- |
| GGWSLFCIVVVV | 0.111 ± 0.039 | 0.171 ± 0.0092 | 0.179 ± 0.029 | 0.306 ± 0.0031 | 0.167 ± 0.013 | 0.173 ± 0.035 | 0.253 ± 0.0092 | 0.268 ± 0.074 |
| GIFVWWFWGCCG | 0.503 ± 0.016 | 0.585 ± 0.051 | 0.38 ± 0.023 | 0.567 ± 0.03 | 0.293 ± 0.02 | 0.321 ± 0.017 | 0.5283 ± 0.0019 | 0.399 ± 0.01 |
| GILILRLILCLF | 0.251 ± 0.027 | 0.302 ± 0.047 | 0.248 ± 0.033 | 0.385 ± 0.023 | 0.171 ± 0.0058 | 0.189 ± 0.018 | 0.24 ± 0.012 | 0.227 ± 0.0044 |
| GILLLLISRVVF | 0.278 ± 0.032 | 0.373 ± 0.025 | 0.229 ± 0.047 | 0.469 ± 0.0056 | 0.197 ± 0.039 | 0.227 ± 0.021 | 0.413 ± 0.0093 | 0.371 ± 0.011 |
| GILVVAASICYV | 0.451 ± 0.021 | 0.48 ± 0.02 | 0.355 ± 0.031 | 0.52243 ± 0.00038 | 0.342 ± 0.0088 | 0.359 ± 0.017 | 0.488 ± 0.015 | 0.447 ± 0.018 |
| GKKKREWKKNRI | 0.6893 ± 0.00074 | 0.733 ± 0.0097 | 0.645 ± 0.022 | 0.711 ± 0.013 | 0.217 ± 0.026 | 0.257 ± 0.041 | 0.552 ± 0.0071 | 0.382 ± 0.021 |
| GLCLFLIGVFSV | 0.224 ± 0.0031 | 0.313 ± 0.06 | 0.246 ± 0.039 | 0.439 ± 0.022 | 0.2104 ± 0.0019 | 0.237 ± 0.023 | 0.381 ± 0.026 | 0.4425 ± 0.0022 |
| GLFAVWVVGVWC | 0.0437 ± 0.0013 | 0.137 ± 0.052 | 0.139 ± 0.031 | 0.219 ± 0.0058 | 0.0955 ± 0.013 | 0.111 ± 0.045 | 0.202 ± 0.011 | 0.212 ± 0.052 |
| GLFLLWWLGWLV | 0.63 ± 0.011 | 0.645 ± 0.043 | 0.468 ± 0.022 | 0.651 ± 0.023 | 0.333 ± 0.02 | 0.376 ± 0.02 | 0.5187 ± 0.0047 | 0.422 ± 0.036 |
| GLFLYCCLVSLL | 0.192 ± 0.031 | 0.321 ± 0.0044 | 0.25 ± 0.025 | 0.413 ± 0.018 | 0.191 ± 0.00083 | 0.193 ± 0.019 | 0.33 ± 0.0091 | 0.283 ± 0.011 |
| GLLLVWAALGFV | 0.343 ± 0.033 | 0.4444 ± 0.0018 | 0.28 ± 0.019 | 0.458 ± 0.006 | 0.221 ± 0.007 | 0.251 ± 0.043 | 0.439 ± 0.0095 | 0.3431 ± 0.00066 |
| GLVVWWLSGWLW | 0.249 ± 0.034 | 0.435 ± 0.05 | 0.269 ± 0.023 | 0.428 ± 0.0078 | 0.221 ± 0.026 | 0.276 ± 0.025 | 0.425 ± 0.048 | 0.373 ± 0.0071 |
| GMGHLSNVCLKT | 0.689 ± 0.008 | 0.765 ± 0.0086 | 0.639 ± 0.012 | 0.726 ± 0.0093 | 0.636 ± 0.026 | 0.645 ± 0.019 | 0.706 ± 0.027 | 0.597 ± 0.17 |
| GRLDHWNKHKYI | 0.528 ± 0.031 | 0.687 ± 0.032 | 0.64 ± 0.0064 | 0.783 ± 0.024 | 0.104 ± 0.013 | 0.0786 ± 0.026 | 0.14 ± 0.032 | 0.184 ± 0.0029 |
| GRWVLALCLVCG | 0.165 ± 0.0068 | 0.199 ± 0.0044 | 0.202 ± 0.026 | 0.312 ± 0.0066 | 0.164 ± 0.0086 | 0.194 ± 0.026 | 0.273 ± 0.0044 | 0.289 ± 0.0051 |
| GSLLNLSLRWLV | 0.626 ± 0.012 | 0.7289 ± 0.0067 | 0.6638 ± 0.0066 | 0.739 ± 0.0077 | 0.13932 ± 9.1e-05 | 0.138 ± 0.022 | 0.226 ± 0.0075 | 0.242 ± 0.0062 |
| GTMGWYSISRRL | 0.692 ± 0.052 | 0.754 ± 0.025 | 0.681 ± 0.013 | 0.746 ± 0.012 | 0.6585 ± 0.004 | 0.646 ± 0.022 | 0.729 ± 0.0091 | 0.519 ± 0.078 |

| Sequence | protein stability index [1, 3] | protein stability index [1, 4] | protein stability index [1, 5] | protein stability index [1, 6] | protein stability index [1, 7] | protein stability index [1, 8] | protein stability index [1, 9] | protein stability index [2] |
| --- | --- | --- | --- | --- | --- | --- | --- | --- |
| GVCRFFCLVFCS | 0.544 ± 0.02 | 0.5349 ± 0.0021 | 0.507 ± 0.049 | 0.515 ± 0.018 | 0.494 ± 0.013 | 0.441 ± 0.018 | 0.4723 ± 0.003 | 0.466 ± 0.036 |
| GVCSFFVCVFFV | 0.195 ± 0.0042 | 0.319 ± 0.034 | 0.233 ± 0.036 | 0.41 ± 0.005 | 0.162 ± 0.008 | 0.177 ± 0.024 | 0.303 ± 0.0089 | 0.291 ± 0.0064 |
| GVFLVWWVGFWV | 0.257 ± 0.025 | 0.401 ± 0.021 | 0.25 ± 0.035 | 0.431 ± 0.014 | 0.223 ± 0.0082 | 0.238 ± 0.029 | 0.455 ± 0.047 | 0.374 ± 0.057 |
| GVLFHIVLHFMV | 0.24 ± 0.045 | 0.277 ± 0.01 | 0.255 ± 0.028 | 0.391 ± 0.0053 | 0.199 ± 0.017 | 0.194 ± 0.023 | 0.305 ± 0.029 | 0.27 ± 0.061 |
| GVMSICRWMISV | 0.415 ± 0.0094 | 0.427 ± 0.012 | 0.325 ± 0.042 | 0.4914 ± 0.0034 | 0.263 ± 0.013 | 0.275 ± 0.035 | 0.439 ± 0.017 | 0.374 ± 0.014 |
| GVQFRRPLIPIY | 0.514 ± 0.0065 | 0.4877 ± 0.0027 | 0.358 ± 0.03 | 0.5467 ± 0.0036 | 0.325 ± 0.011 | 0.35 ± 0.025 | 0.517 ± 0.0099 | 0.445 ± 0.082 |
| GVVCVLGFALFV | 0.403 ± 0.026 | 0.507 ± 0.042 | 0.293 ± 0.046 | 0.495 ± 0.0051 | 0.28 ± 0.014 | 0.3 ± 0.028 | 0.473 ± 0.0053 | 0.413 ± 0.08 |
| GWGVFFVMRIQV | 0.1751 ± 0.00088 | 0.259 ± 0.055 | 0.225 ± 0.02 | 0.367 ± 0.017 | 0.197 ± 0.016 | 0.198 ± 0.024 | 0.301 ± 0.029 | 0.34 ± 0.024 |
| GWLVGLGLVFFT | 0.586 ± 0.018 | 0.664 ± 0.01 | 0.513 ± 0.033 | 0.661 ± 0.014 | 0.488 ± 0.02 | 0.499 ± 0.031 | 0.618 ± 0.011 | 0.514 ± 0.03 |
| GWRRRIWLCRLQ | 0.575 ± 0.018 | 0.741 ± 0.038 | 0.7 ± 0.013 | 0.7939 ± 0.004 | 0.41 ± 0.02 | 0.412 ± 0.036 | 0.662 ± 0.054 | 0.505 ± 0.041 |
| GYLFICSWCEGF | 0.46 ± 0.059 | 0.503 ± 0.01 | 0.363 ± 0.023 | 0.503 ± 0.029 | 0.352 ± 0.028 | 0.346 ± 0.018 | 0.4849 ± 0.0034 | 0.427 ± 0.048 |
| HDRLRGVFWRVP | 0.669 ± 0.066 | 0.739 ± 0.01 | 0.655 ± 0.038 | 0.74321 ± 0.00071 | 0.263 ± 0.015 | 0.308 ± 0.032 | 0.5752 ± 0.0019 | 0.439 ± 0.014 |
| HGVRLHTVWVGG | 0.55 ± 0.029 | 0.559 ± 0.026 | 0.413 ± 0.011 | 0.597 ± 0.0065 | 0.347 ± 0.0076 | 0.4 ± 0.033 | 0.5437 ± 0.005 | 0.4918 ± 0.0038 |
| HLKKKLKIRLIN | 0.488 ± 0.16 | 0.685 ± 0.02 | 0.645 ± 0.011 | 0.698 ± 0.036 | 0.108 ± 0.01 | 0.116 ± 0.02 | 0.171 ± 0.018 | 0.238 ± 0.031 |
| HSRALLPYLSYH | 0.684 ± 0.04 | 0.753 ± 0.016 | 0.651 ± 0.021 | 0.7732 ± 0.007 | 0.408 ± 0.013 | 0.388 ± 0.021 | 0.558 ± 0.012 | 0.518 ± 0.029 |
| HTYSFRLLFIFL | 0.378 ± 0.031 | 0.456 ± 0.016 | 0.328 ± 0.035 | 0.4762 ± 0.0044 | 0.381 ± 0.013 | 0.321 ± 0.022 | 0.45677 ± 0.00022 | 0.388 ± 0.05 |
